Data on one molecule can be found in publication PMC11077089, “Molecular basis of A. thaliana KEOPS complex in biosynthesizing tRNA t6A”.

Substitutions are numbered along the chain they refer to.

The target of series [1] is T1, KAE1;BUD32;CGI121;PCC1 R73D (Arabidopsis thaliana;Arabidopsis …, UniProt O49653;Q94K14;Q6NMZ4;Q8GWD7 1-353;1-226;1-172;1-96, |||R73D).
T1 sequence 1: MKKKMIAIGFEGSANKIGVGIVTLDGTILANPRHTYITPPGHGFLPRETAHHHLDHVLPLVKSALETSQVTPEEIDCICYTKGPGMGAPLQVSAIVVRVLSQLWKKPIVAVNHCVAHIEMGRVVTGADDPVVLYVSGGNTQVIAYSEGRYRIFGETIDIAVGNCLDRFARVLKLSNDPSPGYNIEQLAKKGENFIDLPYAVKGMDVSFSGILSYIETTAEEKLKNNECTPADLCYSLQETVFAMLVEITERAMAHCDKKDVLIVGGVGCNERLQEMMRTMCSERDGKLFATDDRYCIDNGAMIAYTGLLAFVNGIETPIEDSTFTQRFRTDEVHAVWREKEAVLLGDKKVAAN
T1 sequence 2: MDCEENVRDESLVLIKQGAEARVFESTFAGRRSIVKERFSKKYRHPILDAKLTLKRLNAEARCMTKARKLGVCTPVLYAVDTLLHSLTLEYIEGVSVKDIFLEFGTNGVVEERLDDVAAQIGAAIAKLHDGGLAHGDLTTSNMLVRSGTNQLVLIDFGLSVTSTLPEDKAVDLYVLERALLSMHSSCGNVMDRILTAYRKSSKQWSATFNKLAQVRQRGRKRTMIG
T1 sequence 3: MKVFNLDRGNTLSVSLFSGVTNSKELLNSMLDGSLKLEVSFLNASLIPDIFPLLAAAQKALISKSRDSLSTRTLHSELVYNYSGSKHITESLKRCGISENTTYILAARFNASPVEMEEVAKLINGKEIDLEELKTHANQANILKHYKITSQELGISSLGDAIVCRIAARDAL
T1 sequence 4: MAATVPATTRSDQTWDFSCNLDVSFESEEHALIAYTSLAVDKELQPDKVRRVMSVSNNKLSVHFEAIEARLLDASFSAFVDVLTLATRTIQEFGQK
Nature of the series: MST; Fig S4 legend gives ~372; MST: 20 mM PBS pH 7.5, 300 mM NaCl, 0.05% Tween 20, 25 C, 50 nM RNA; EMSA: 20 mM Tris-HCl pH 7.5, 300 mM NaCl, 5 mM b-mercaptoethanol, 20% glycerol, agarose gel in Tris-glycine pH 8.0 (8.5 for FAM-RNA), 4 C. The following applies: protein: recombinant;recombinant;recombinant;recombinant; tags: none (6His on partner PCC1);none (6His on partner CGI121);6His (C-term);6His (C-term); chain copies: 2;2;2;2; label: 5' 6-FAM; tRNA cloverleaf. Background: A gel shift assay detects complexes by their altered migration in electrophoresis.

For a further series, the target named is T2, KAE1;BUD32;CGI121;PCC1 (Arabidopsis thaliana;Arabidopsis …, UniProt O49653;Q94K14;Q6NMZ4;Q8GWD7 1-353;1-226;1-172;1-96, |||).
T2 sequence 1: T1 sequence 1
T2 sequence 2: T1 sequence 2
T2 sequence 3: T1 sequence 3
T2 sequence 4: T1 sequence 4 with D73R
Nature of the series: MST; KEOPS dimer; MST: 20 mM PBS pH 7.5, 300 mM NaCl, 0.05% Tween 20, 25 C, 50 nM RNA; EMSA: 20 mM Tris-HCl pH 7.5, 300 mM NaCl, 5 mM b-mercaptoethanol, 20% glycerol, agarose gel in Tris-glycine pH 8.0 (8.5 for FAM-RNA), 4 C. The following applies: protein: recombinant;recombinant;recombinant;recombinant; tags: none (6His on partner PCC1);none (6His on partner CGI121);6His (C-term);6His (C-term); chain copies: 2;2;2;2; label: 5' 6-FAM; tRNA cloverleaf.

Series [2] concerns the target T3, KAE1;BUD32 R220stop;CGI121;PCC1 (Arabidopsis thaliana;Arabidopsis …, UniProt O49653;Q94K14;Q6NMZ4;Q8GWD7 1-353;1-219;1-172;1-96, |del220-226||).
T3 sequence 1: T1 sequence 1
T3 sequence 2: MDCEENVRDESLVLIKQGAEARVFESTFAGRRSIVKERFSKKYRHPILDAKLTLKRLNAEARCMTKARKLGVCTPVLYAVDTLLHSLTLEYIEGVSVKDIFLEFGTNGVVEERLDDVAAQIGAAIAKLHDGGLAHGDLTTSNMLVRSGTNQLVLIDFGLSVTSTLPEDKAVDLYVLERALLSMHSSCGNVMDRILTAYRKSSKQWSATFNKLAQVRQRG
T3 sequence 3: T1 sequence 3
T3 sequence 4: T1 sequence 4 with D73R
Nature of the series: EMSA; MST: 20 mM PBS pH 7.5, 300 mM NaCl, 0.05% Tween 20, 25 C, 50 nM RNA; EMSA: 20 mM Tris-HCl pH 7.5, 300 mM NaCl, 5 mM b-mercaptoethanol, 20% glycerol, agarose gel in Tris-glycine pH 8.0 (8.5 for FAM-RNA), 4 C. Conditions: protein: recombinant;recombinant;recombinant;recombinant; tags: none (6His on partner PCC1);;6His (C-term);6His (C-term); chain copies: 2;2;2;2; label: 5' 6-FAM; tRNA cloverleaf.

For a further series, the target named is T4, CGI121 (Arabidopsis thaliana, UniProt Q6NMZ4 1-172).
T4 sequence: T1 sequence 3
The description is as above. The following applies: protein: recombinant; tags: 6His (C-term); label: 5' 6-FAM; tRNA cloverleaf.

Series [3] deals with T5, KAE1;BUD32 I47K;CGI121;PCC1 (Arabidopsis thaliana;Arabidopsis …, UniProt O49653;Q94K14;Q6NMZ4;Q8GWD7 1-353;1-226;1-172;1-96, |I47K||).
T5 sequence 1: T1 sequence 1
T5 sequence 2: T1 sequence 2 with I47K
T5 sequence 3: T1 sequence 3
T5 sequence 4: T1 sequence 4 with D73R
The description is as above. The following applies: protein: recombinant;recombinant;recombinant;recombinant; tags: none (6His on partner PCC1);;6His (C-term);6His (C-term); chain copies: 2;2;2;2; label: 5' 6-FAM; tRNA cloverleaf.

B1: 5'-6FAM-tRNAArgCCU (structured_RNA)
RNA: GCGCCUGUAGCUCAGUGGAUAGAGCGUCUGUUUCCUAAGCAGAAGGUCGUAGGUUCGACCCCUACCUGGCGCGCCA
B1: the Kd (in general, the constant that tells how readily two partners part at equilibrium) in series [1] came out at 353 ± 40 µM; with KAE1;BUD32;CGI121;PCC1, 18.1 ± 3.87 µM. For the same molecule, the binding result in series [2] was “binds”; in the series with CGI121, “no binding”; in series [3], “binds”.
